Experimental data taken from the domain aggregation screens of Martell et al. (2025).

Test: soluble fraction after stress (log2 fold change); higher = more stays soluble; pooled small domains, quantitative proteomics
Conditions: stress: pH 4
Procedure, shortened: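 Custom libraries of small protein domains were pooled and exposed to pH 4. High-throughput quantitative proteomics then measured the log2 fold change in the amount of each domain still soluble, with higher values meaning more stayed soluble. This soluble-fraction fold change stands for aggregation propensity.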

Sequence | soluble fraction (log2)
HMGTTIAMSKLKQVLRWKEEGYSNRKIAQLVGLNKETVNNYISRANADSLSQKELLQLDDFVLDIRLRG | -0.138
HMITQQEFQQKLEALLSRAEAESFHIKKEEAESFFSGDELTGEQMKLVFDYLLSKKIIVEGYLK | 0.0629
HMGVGTTDERLAVLNQIASRQTEALEKLGPNNPLVGLGQIRNTLSKMLEISGYPDSNQFFKQVPLDYEPPP | -0.0341
HMADVLLKHGSSGDYVWDLQYRLKTLSLFDQEMTGYFGPHTRQAVVNFQRKYGLPADGVVGPATWRALRK | -0.551
HMTMNLIEIGHVVGARRAELGLTQAQLAHLSGLSRQTVVGLEKGTLSDLGVNRVGQVMAVLGLDS | -0.242
HMFMLQAKRVPVSELENFKGIVAEDVVSQSRALILPRGSNLSWLSSSAMQNLSTRLALEGVESISIYL | -1.8
HMTKEEIVVNWLPRYTKRNLEDFGEYILLTNFNKYVEIFAEKFNVPILGRDANMISASAEGITIIN | -0.359
HMSSLQFVTLTLMEGHAWVGREIQELLMPPQMRIALIRRGDSQVIPKGSTILESADELILSAIEYQG | -2.51
HMQPAALEAQVIKLVRLHAPIKARQLATILANEFGQHVDRSTVNSLLYQLRAQGKVAQNAAYQWSLT | -0.0984
HMSIELEISADGNNYRVSGLSDGEDVRVYSVSGVQVFSGKAQGGEVVIPADNWNKGIYVISAGGSSVKVL | -0.312
HMRGPTIELLIQKSALYEELDDSENALKEILKAFDRDSLNSDVLNRLVNLLLNDKQIDRAENYNQLLIEK | -0.847
HMLLGPDALTNRELDVLALLERRLSNKEIGALLYISPRTVKRHTINIYQKLHVNNRRAAVAQAKALGLMPD | -0.489
HMKSKHENLIDGLLKMISSMKPHDRLTPERQLAEEWAVSRMTLRRALEVLQFQGKIYTVPSSGLFVAEPK | -0.677
HMKQHPTIDLQIGQKLHYKEDVFEVTRFAKDKNGQDMVILKDPSIGSGIEIPWYRSKLEEIIESGQYKIT | -0.113
HMTTQVPYTAKLININGGSVVNFRKEPGMNTTIIRTYPVGTEVTVLETGVNWSKVEIDGVTGYVSSYFL | -0.00711
HMQITDSGAIETIIDKIIADNPGQVTQYLSGKDKVFGFFVGQTMKASQGKANPAEVNKILQEKLK | -0.029
HMSTVTGLINYLSSGLIKGVGEATARKLVDHFGLDVLDIIQFNPQRLLEVDGIGEARAEMIASSFSEQK | -1.48
HMEGNWGLWAKVPNRFAALTTDKDSALRRFKSKEDGEAWMASHGLKPERFDVLEIPADYKPA | -0.0509
HMDDMVLEIGPGIGTMTQYLAEAAGKVVAVEIDRNLLPILQETLADYDNVKVIHADVLSLDLEKLVQEE | -0.868
HMEAPWQEIKRQVMDGLDMSREFTDEELRERIALAVRSYSKEKLLSLKVRESYEEQIFNSFR | -0.261
HMGDEVAVTEILVKVGDTVEADQSLLTVEGDKASMEVPAPFAGVVKAIQVQLGDKVVTGSPIMLFEV | -0.88
HMKLTEEEFNAKRKAYLDRLETLNDEAVIKATFMEAASGLGLQKGSAEFGDLRKYFVDRIVDIK | -0.903
HMNSVLPQEVKSSLNDFFTKYAPGSIAQKLINHASFTGGKVVVTGVELTQTQADDLKKAFKDKFF | 0.22
HMLLFNVADIVKRAKRVLNFKTDAELAAYLGVSRPTLSNWIARNGIDFPLLLEKLKEIDYNWLLVGKGKPE | -0.114
HMKNELNSKLIISIKEALPPQIKVATYLMDLLSLGREAVYRRIRGDVSFDLEELSIISKALNISIDDVL | -2.53
HMNSIDIENELVKIIEKNGQPMSFDDLVFKLDSLYSTRYKFAKGYIRTIILNSNRIASIGKTSTYSLYKWN | -0.31
HMYDDEELDVLAHRPIESYTDAELAMLREVAETLLETDYEGWLKSLSMRGILLPPEILQLVT | -1.29
HMALTARDLGLTHRQADVLHLVLQGKPVKLIARDLGLAEGTVKSHVSAVLRALNVTTRTQAIVAAGRLGLM | ≥ 0.43
HMATYTPYDKQGAKLWRVTAYLGMDSVTGKQRNMKKGGFKTKKEAQLYYNQVKLDFENGTLDQ | 0.22
HMDSAVLQKHLVKLIELHAPIKARNLAKILADEFGKHVDRSAVNSALYSLKAERKVEVNSSYEWSLD | 0.252
